Measurements published in IntAct's records for PubMed 29892012.

B1: Coiled-coil domain-containing protein 120 (Homo sapiens), Q96HB5-4 (parent)
chain: MRREPRYQGQVGPDIHTDSERTLSSHQPRPLDSTKMEVKGQLISSPTFNAPAALFGEAAPQVKSERLRGLLDRQRTLQEALSLKLQELRKVCLQEAELTGQLPPECPLEPGERPQLVRRRPPTARAYPPPHPNQAHHSLCPAEELALEALEREVSVQQQIAAAARRLALAPDLSTEQRRRRRQVQADALRRLHELEEQLRDVRARLGLPVLPLPQPLPLSTGSVITTQGVCLGMRLAQLSQEDVVLHSESSSLSESGASHDNEEPHGCFSLAERPSPPKAWDQLRAVSGGSPERRTPWKPPPSDLYGDLKSRRNSVASPTSPTRSLPRSASSFEGRSVPATPVLTRGAGPQLCKPEGLHSRQWSGSQDSQMGFPRADPASDRASLFVARTRRSNSSEALLVDRAAGGGAGSPPAPLAPSASGPPVCKSSEVLYERPQPTPAFSSRTAGPPDPPRAARPSSAAPASRGAPRLPPVCGDFLLDYSLDRGLPRSGGGTGWGELPPAAEVPGPLSRRDGLLTMLPGPPPVYAADSNSPLLRTKDPHTRATRTKPCGLPPEAAEGPEVHPNPLLWMPPPTRIPSAGERSGHKNLALEGLRDWYIRNSGLAAGPQRRPVLPSVGPPHPPFLHARCYEVGQALYGAPSQAPLPHSRSFTAPPVSGRYYADFLYPPELSARLSDLTLEGEQSSSSDTQTPGTLV
partner: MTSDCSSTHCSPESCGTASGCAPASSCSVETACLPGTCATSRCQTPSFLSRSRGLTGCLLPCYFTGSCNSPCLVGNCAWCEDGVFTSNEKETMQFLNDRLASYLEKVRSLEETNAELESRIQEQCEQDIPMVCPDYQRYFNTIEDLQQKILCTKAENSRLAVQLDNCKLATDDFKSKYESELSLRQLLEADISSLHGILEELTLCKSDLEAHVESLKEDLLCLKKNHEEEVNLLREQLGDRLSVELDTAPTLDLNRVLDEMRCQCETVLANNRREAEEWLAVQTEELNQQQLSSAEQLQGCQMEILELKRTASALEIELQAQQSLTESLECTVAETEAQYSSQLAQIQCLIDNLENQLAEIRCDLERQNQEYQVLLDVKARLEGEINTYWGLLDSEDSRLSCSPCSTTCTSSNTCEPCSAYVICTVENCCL
B2: Ligand of Numb protein X 2 (Homo sapiens), Q8N448 (parent)
chain: MGTTSDEMVSVEQTSSSSLNPLCFECGQQHWTRENHLYNYQNEVDDDLVCHICLQPLLQPLDTPCGHTFCYKCLRNFLQEKDFCPLDRKRLHFKLCKKSSILVHKLLDKLLVLCPFSSVCKDVMQRCDLEAHLKNRCPGASHRRVALERRKTSRTQAEIENENGPTLLDPAGTLSPEADCLGTGAVPVERHLTSASLSTWSEEPGLDNPAFEESAGADTTQQPLSLPEGEITTIEIHRSNPYIQLGISIVGGNETPLINIVIQEVYRDGVIARDGRLLAGDQILQVNNYNISNVSHNYARAVLSQPCNTLHLTVLRERRFGNRAHNHSDSNSPREEIFQVALHKRDSGEQLGIKLVRRTDEPGVFILDLLEGGLAAQDGRLSSNDRVLAINGHDLKYGTPELAAQIIQASGERVNLTIARPGKPQPGNTIREAGNHSSSSQHHTPPPYYSRPSSHKDLTQCVTCQEKHITVKKEPHESLGMTVAGGRGSKSGELPIFVTSVPPHGCLARDGRIKRGDVLLNINGIDLTNLSHSEAVAMLKASAASPAVALKALEVQIVEEATQNAEEQPSTFSENEYDASWSPSWVMWLGLPSTLHSCHDIVLRRSYLGSWGFSIVGGYEENHTNQPFFIKTIVLGTPAYYDGRLKCGDMIVAVNGLSTVGMSHSALVPMLKEQRNKVTLTVICWPGSLV
partner: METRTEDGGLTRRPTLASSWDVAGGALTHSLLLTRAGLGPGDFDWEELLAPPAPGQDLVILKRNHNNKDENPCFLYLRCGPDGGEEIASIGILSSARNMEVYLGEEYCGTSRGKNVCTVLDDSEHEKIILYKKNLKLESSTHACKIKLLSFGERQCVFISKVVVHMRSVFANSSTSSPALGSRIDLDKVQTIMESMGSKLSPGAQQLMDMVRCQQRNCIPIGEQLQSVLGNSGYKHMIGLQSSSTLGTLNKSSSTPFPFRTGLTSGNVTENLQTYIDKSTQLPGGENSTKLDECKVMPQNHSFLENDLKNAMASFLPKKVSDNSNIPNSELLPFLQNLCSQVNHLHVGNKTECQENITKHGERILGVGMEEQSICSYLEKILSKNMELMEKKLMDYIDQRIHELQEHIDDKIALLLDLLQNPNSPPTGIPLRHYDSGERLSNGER
B3: Ribosome-recycling factor, mitochondrial (Homo sapiens), Q96E11 (parent)
chain: MALGLKCFRMVHPTFRNYLAASIRPVSEVTLKTVHERQHGHRQYMAYSAVPVRHFATKKAKAKGKGQSQTRVNINAALVEDIINLEEVNEEMKSVIEALKDNFNKTLNIRTSPGSLDKIAVVTADGKLALNQISQISMKSPQLILVNMASFPECTAAAIKAIRESGMNLNPEVEGTLIRVPIPQVTREHREMLVKLAKQNTNKAKDSLRKVRTNSMNKLKKSKDTVSEDTIRLIEKQISQMADDTVAELDRHLAVKTKELLG
partner: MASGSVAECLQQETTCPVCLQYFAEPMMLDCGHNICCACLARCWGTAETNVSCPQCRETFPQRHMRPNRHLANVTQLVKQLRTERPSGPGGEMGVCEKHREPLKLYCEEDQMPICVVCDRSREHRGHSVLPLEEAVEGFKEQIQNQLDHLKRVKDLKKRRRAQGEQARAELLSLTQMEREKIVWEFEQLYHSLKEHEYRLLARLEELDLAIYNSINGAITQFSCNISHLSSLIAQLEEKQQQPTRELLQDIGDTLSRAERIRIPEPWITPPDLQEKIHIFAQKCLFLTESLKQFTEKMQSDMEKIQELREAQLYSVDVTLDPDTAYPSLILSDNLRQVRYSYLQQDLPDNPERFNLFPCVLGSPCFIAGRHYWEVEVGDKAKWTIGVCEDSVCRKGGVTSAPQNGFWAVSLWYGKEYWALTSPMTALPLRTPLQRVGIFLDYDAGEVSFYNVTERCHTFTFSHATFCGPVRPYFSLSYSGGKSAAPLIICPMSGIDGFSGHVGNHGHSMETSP
B4: Coiled-coil domain-containing protein 120 (Homo sapiens), Q96HB5-4 (parent)
chain: B1 chain
partner: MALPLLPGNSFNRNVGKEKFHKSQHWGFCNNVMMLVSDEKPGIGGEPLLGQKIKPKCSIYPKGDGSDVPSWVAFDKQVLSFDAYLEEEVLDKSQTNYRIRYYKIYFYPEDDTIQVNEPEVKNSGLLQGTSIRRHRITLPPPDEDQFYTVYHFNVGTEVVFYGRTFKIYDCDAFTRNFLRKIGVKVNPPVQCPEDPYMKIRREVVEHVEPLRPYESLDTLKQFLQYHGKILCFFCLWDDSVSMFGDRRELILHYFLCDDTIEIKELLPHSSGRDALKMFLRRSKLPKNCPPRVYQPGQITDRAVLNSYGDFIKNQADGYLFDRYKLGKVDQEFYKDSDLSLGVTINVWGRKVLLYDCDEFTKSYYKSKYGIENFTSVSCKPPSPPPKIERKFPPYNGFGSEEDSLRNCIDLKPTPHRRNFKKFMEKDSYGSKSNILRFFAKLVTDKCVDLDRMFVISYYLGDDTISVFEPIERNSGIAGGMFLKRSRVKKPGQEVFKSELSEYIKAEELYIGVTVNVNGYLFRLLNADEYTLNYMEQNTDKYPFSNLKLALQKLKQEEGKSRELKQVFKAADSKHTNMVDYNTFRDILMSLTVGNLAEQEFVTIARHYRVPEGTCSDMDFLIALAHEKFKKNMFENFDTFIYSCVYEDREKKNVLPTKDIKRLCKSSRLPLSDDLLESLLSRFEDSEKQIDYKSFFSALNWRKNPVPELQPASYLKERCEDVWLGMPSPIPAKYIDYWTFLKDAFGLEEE
B5: Inactive peptidyl-prolyl cis-trans isomerase FKBP6 (Homo sapiens), O75344 (parent)
chain: MGGSALNQGVLEGDDAPGQSLYERLSQRMLDISGDRGVLKDVIREGAGDLVAPDASVLVKYSGYLEHMDRPFDSNYFRKTPRLMKLGEDITLWGMELGLLSMRRGELARFLFKPNYAYGTLGCPPLIPPNTTVLFEIELLDFLDCAESDKFCALSAEQQDQFPLQKVLKVAATEREFGNYLFRQNRFYDAKVRYKRALLLLRRRSAPPEEQHLVEAAKLPVLLNLSFTYLKLDRPTIALCYGEQALIIDQKNAKALFRCGQACLLLTEYQKARDFLVRAQKEQPFNHDINNELKKLASCYRDYVDKEKEMWHRMFAPCGDGSTAGES
partner: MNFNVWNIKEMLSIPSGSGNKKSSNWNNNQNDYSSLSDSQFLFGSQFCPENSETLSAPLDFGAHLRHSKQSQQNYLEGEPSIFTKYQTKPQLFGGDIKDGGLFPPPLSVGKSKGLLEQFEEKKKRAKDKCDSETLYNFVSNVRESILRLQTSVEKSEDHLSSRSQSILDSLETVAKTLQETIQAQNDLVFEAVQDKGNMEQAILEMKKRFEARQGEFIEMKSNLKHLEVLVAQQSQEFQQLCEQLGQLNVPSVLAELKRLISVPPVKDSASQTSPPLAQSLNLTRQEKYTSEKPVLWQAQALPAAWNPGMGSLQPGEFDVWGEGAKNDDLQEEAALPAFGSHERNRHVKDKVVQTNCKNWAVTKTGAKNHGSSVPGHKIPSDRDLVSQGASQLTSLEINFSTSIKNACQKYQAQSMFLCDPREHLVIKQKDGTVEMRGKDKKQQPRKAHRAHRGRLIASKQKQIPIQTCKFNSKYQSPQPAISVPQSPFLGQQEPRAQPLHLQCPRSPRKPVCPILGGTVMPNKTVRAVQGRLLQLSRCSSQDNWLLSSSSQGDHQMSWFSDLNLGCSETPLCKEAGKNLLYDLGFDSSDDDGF
B6: CD151 antigen (Homo sapiens), P48509 (parent)
chain: MGEFNEKKTTCGTVCLKYLLFTYNCCFWLAGLAVMAVGIWTLALKSDYISLLASGTYLATAYILVVAGTVVMVTGVLGCCATFKERRNLLRLYFILLLIIFLLEIIAGILAYAYYQQLNTELKENLKDTMTKRYHQPGHEAVTSAVDQLQQEFHCCGSNNSQDWRDSEWIRSQEAGGRVVPDSCCKTVVALCGQRDHASNIYKVEGGCITKLETFIQEHLRVIGAVGIGIACVQVFGMIFTCCLYRSLKLEHY

Variants of: B1
Settings: with KRT40, Q6A162
For R346W, the “effect of a mutation on the interaction” value was “with no effect”.

Variants of: B2
Settings: with paat_human PAAT
With P669A the “effect of a mutation on the interaction” value was “with no effect”.

Variants of: B3
Settings: with tri27_human TRIM27, P14373
For G175E, the “effect of a mutation on the interaction” value was “disrupting interaction strength”.

Variants of: B4
Settings: with efhc2_human EFHC2, Q5JST6
For R346W, the “effect of a mutation on the interaction” value was “with no effect”.

Variants of: B5
Settings: with iho1_human IHO1, Q8IYA8
L246F was tested, and the “effect of a mutation on the interaction” value was “disrupting interaction strength”.

Variants of: B6
Settings: with astrc_human GRAMD1C
With A67V the “effect of a mutation on the interaction” value was “with no effect”.
